Sequences and labels used below:
B1: HDV Ribozyme (parent)
chain: GGCCGGCAUGGUCCCAGCCUCCUCGCUGGCGCCGGCUGGGCAACAUUCCGAGGGGACCGUCCCCUCGGUAAUGGCGAAUGGGACCCA

Variants of B1 are the subject of this data set. Description: self-cleavage, relative activity (ratio to wild type); higher = more cleavage; co-transcriptional.
As for C21U U27A, the self-cleavage is 0.0536. As for A8C C18U, the self-cleavage was determined as 0.369. On to G55U C85U, for which the self-cleavage was found to be 0.92. Regarding G11A G68U, the self-cleavage came to 0.249. The same measure for C22G G40U: 0.104. C41G A45U: the self-cleavage turned out to be 0.594.

In the case of C36A C57G, the self-cleavage was found to be 0.0898. Take A43C A51C: the self-cleavage worked out at 0.604. In the case of G2U C62A, the self-cleavage is 0.0166.

Regarding G59U U79C, the self-cleavage was determined as 0.563. The same measure for C26A C86A: 1.13. As to G25A C63G, the self-cleavage was found to be 0.237. With C13G G31A, the self-cleavage came out at 0.0923.

Take C32G G39A: the self-cleavage was determined as 0.157.

On to G11A C24G, for which the self-cleavage is 0.0747. For C44G U69G the value was 0.443; for U20A G81A, 0. The same measure for U20A G67U: 0.115; for G10U G11U: 0.344; for G17U G74C: 0.0415. As to C19A C64G, the self-cleavage was determined as 0.111.

In the case of G25U A45C, the self-cleavage amounted to 0.0831. For the variant G6A G31C, the self-cleavage was determined as 0.111. For U27G C32A the value was 0.185. Consider C36G A77G, for which the self-cleavage was 0.0791. On to C22G G54C, for which the self-cleavage is 0.0277. Take C4U C33U: the self-cleavage came to 0.612. For G67U A77G the value was 0.489; for G11U C66A, 0.31; for C13A C22A, 0.0287. The same measure for G40A G81C: 0.29. Consider G2A G53U, for which the self-cleavage is 0.145. In the case of A45C C86G, the self-cleavage is 0.465. The same measure for C41U U69A: 1.08; for C75G G81C: 0.0831. The same measure for C4U C44G: 0.214; for U23C G59U: 0.975; for U12C G31U: 0.0386. The same measure for G34U C63A: 0.164. With C22A G59U, the self-cleavage is 0.377. The same measure for G67A A70U: 0.776.

Consider G35C C44U, for which the self-cleavage turned out to be 0.0536. As for C14A C63A, the self-cleavage amounted to 0.755. In the case of C21G G53U, the self-cleavage stood at 0.0248. A42G A56G: the self-cleavage came to 0.516. For A8C G52A, the self-cleavage came out at 0.831. Consider G53C U60A, for which the self-cleavage came out at 1.15. The same measure for C4G G81C: 0.0767; for G28U G29C: 0.106. In the case of U12C C21A, the self-cleavage was 0.0573. For A45C G68C, the self-cleavage turned out to be 0.404. The same measure for C15U C62A: 1.08; for G11C U12C: 0.145; for C41A C61G: 0.909. For G6U G76A the value was 0.708.

Turning to C44A, the self-cleavage worked out at 0.764. The same measure for C44G G80C: 0.0405. For A43U U46C, the self-cleavage stood at 0.383. The same measure for C22A A83G: 0.14; for A45C U60A: 0.883. On to G31A G74A, for which the self-cleavage came out at 0.132. Turning to U69A G76A, the self-cleavage is 0.727. The same measure for U12A G35U: 0.0225; for G76A G80C: 0.0719. As to C41G C63G, the self-cleavage is 0.517.

Regarding U46A A70G, the self-cleavage is 1.01. Turning to C41A A51G, the self-cleavage was found to be 0.705. For C13A U46C the value was 0.203; for C64A A71U, 0.855. As to U69C G73U, the self-cleavage was 0.489. Take C41U G59C: the self-cleavage stood at 0.963. Consider G34C C48G, for which the self-cleavage turned out to be 0.162.

Take G28C A43U: the self-cleavage was determined as 0.111.

Regarding C19G G73U, the self-cleavage turned out to be 0.0545. On to G6U G40U, for which the self-cleavage turned out to be 0.633. With U23G U69A, the self-cleavage was determined as 0.499. On to C61G U79A, for which the self-cleavage worked out at 0.739. For U47C A78G, the self-cleavage amounted to 0.807.

On to G2U C84U, for which the self-cleavage came out at 0.0604.

As to A16C U46C, the self-cleavage was determined as 0.511. In the case of G35A C57U, the self-cleavage is 0.686.

As for G73C A83U, the self-cleavage stood at 0.348. Consider G6U C14A, for which the self-cleavage is 0.0692. On to G31U G53U, for which the self-cleavage amounted to 0.322. For G25A G54U the value was 0.202.

For the variant U12C C85U, the self-cleavage came to 0. The same measure for A8G G31C: 0.145; for C21U C41G: 0.432. As for C33G G73U, the self-cleavage amounted to 0.138. The same measure for G2U C41U: 0.0419; for C58A G67A: 0.745. On to U65A U72G, for which the self-cleavage stood at 0.399. On to U20C G38A, for which the self-cleavage stood at 0.

Consider C30A G38C, for which the self-cleavage is 0.203.

Regarding U23A G68A, the self-cleavage is 0.906. The same measure for C41A A56U: 0.89; for C14U A16U: 1.09. Take G10A G38C: the self-cleavage stood at 0.0692. C22U C24G: the self-cleavage is 0.0563.

G17C G34A: the self-cleavage was determined as 0.102. The same measure for G17U G80C: 0.102; for G10U G17A: 0.704; for U23G A51C: 0.63. The same measure for G6U U79A: 0.246; for U12G A56G: 0.767; for U37G A87C: 0.0764. The same measure for G59C A71G: 0.831. With U9A C64G, the self-cleavage stood at 0.759.

As for U47C G52A, the self-cleavage is 0.853.

For the variant G2C U37C, the self-cleavage came out at 0.17.

For G34U C58A, the self-cleavage was 0.111. Consider U9C G17C, for which the self-cleavage turned out to be 0.415. The same measure for G2C A56G: 0.0332. Consider A8U U46A, for which the self-cleavage turned out to be 0.415.

With A45G G82A, the self-cleavage stood at 0.415.

C14A A42G: the self-cleavage was found to be 0.277.

For C41U G54C, the self-cleavage is 0.63. In the case of C15A G52C, the self-cleavage amounted to 0.655.

Regarding C3U U60C, the self-cleavage was 0.943. Consider C15G A56U, for which the self-cleavage came to 0.914. The same measure for G74C C86U: 0.189; for A42U U46G: 0.287; for G5C C19G: 0. As for U69G A78U, the self-cleavage was found to be 0.277. For U12G C86A, the self-cleavage came to 0.906. For C33G G67C the value was 0.0978. The same measure for C36U C58A: 0.964; for G50A A70C: 0.763.

Regarding U23A G53U, the self-cleavage worked out at 0.923. As to G11U A51G, the self-cleavage stood at 0.415. For U20G C30U the value was 0; for G59C C63G, 0.909; for G29C U65C, 0.138. As to C13U A83C, the self-cleavage turned out to be 0.344. C84A: the self-cleavage was found to be 0.895. For C26A C36A the value was 0.143; for C13G G54C, 0.115.

For G25U A42U, the self-cleavage was found to be 0.173. For C33U G40A the value was 1.06; for G10A U20A, 0.0831; for G34U U79C, 0.201. G6A A56C: the self-cleavage worked out at 0.571. The same measure for U20G C63A: 0.214. The same measure for C24A U65G: 0.511; for A42G G55U: 0.354; for C21A C22A: 0.0898. Consider G39U A83U, for which the self-cleavage came out at 0.259. The same measure for C33A A77U: 0.0923; for A43G C84U: 0.426. The same measure for A16U C64G: 0.782; for C58G A71U: 0.779. For C7A C66G the value was 0.243.

As for A43G U79G, the self-cleavage is 0.199. For G67U G76U the value was 1.08; for G5A G73U, 0.108. The same measure for C13U U47G: 0.95. The same measure for C13A C15U: 0.185; for C32A A43G: 0.119; for A43G G74U: 0.243. With G39C C75U, the self-cleavage came to 0.0583.

G34U A43G: the self-cleavage was 0.0978. For A51C G55C the value was 0.7. For C36G C66G the value was 0.237. For C14U C18G, the self-cleavage came out at 0.0875. The same measure for G25C U69G: 0; for C48G G81U: 0.424. For the variant U9G G76C, the self-cleavage amounted to 1.14.

The values are drawn from the RNAGym collection of RNA variant scans (doi:10.7554/elife.80360).
